# B1: U6 (ssRNA)
# RNA: UUUUUU
# B2: (AC)3A (ssRNA)
# RNA: ACACACA
# B3: A16 (ssRNA)
# RNA: AAAAAAAAAAAAAAAA
# B4: A27 (ssRNA)
# RNA: AAAAAAAAAAAAAAAAAAAAAAAAAAA
# B5: (AU)3A (ssRNA)
# RNA: AUAUAUA
# B6: (AA)3A = A7 (ssRNA)
# RNA: AAAAAAA
# B7: (GGA)9 (ssRNA)
# RNA: GGAGGAGGAGGAGGAGGAGGAGGAGGA
# B8: (GGA)2 (ssRNA)
# RNA: GGAGGA
# B9: (AG)3A (ssRNA)
# RNA: AGAGAGA
# B10: Staphylococcus aureus Hfq (natural protein)
# chain: MIANENIQDKALENFKANQTEVTVFFLNGFQMKGVIEEYDKYVVSLNSQGKQHLIYKHAISTYTVETEGQASTESEE
# B11: A6G (ssRNA)
# RNA: AAAAAAG
# B12: AU5G (ssRNA)
# RNA: AUUUUUG
# Biological target: T1, Sa Hfq (Staphylococcus aureus, UniProt A0A0H3JV59 1-77)
# Experiment: fluorescence polarization
row,Binder,Kd [nM]
1,B1,69.8 ± 7
2,B2,5.8 ± 7.3
3,B3,4.2 ± 0.5
4,B4,109 ± 13
5,B5,2.7 ± 2.3
6,B6,19.5 ± 6.4
7,B7,350
8,B8,450
9,B9,3.5 ± 0.3

# Biological target: Ec Hfq (Escherichia coli, UniProt P0A6X3 1-102)
# Experiment: fluorescence polarization
row,Binder,Kd [nM]
1,B3,0.4 ± 0.5
2,B4,0.85 ± 0.08

# Biological target: Sa Hfq(K33A) (Staphylococcus aureus, UniProt A0A0H3JV59 1-77, K33A)
# Experiment: fluorescence polarization
row,Binder,Kd [nM]
1,B1,72.7 ± 21.9
2,B5,309 ± 40.2
3,B6,406 ± 112
4,B9,11.9 ± 3

# Biological target: the molecule itself
# Experiment: crystal structure
row,Binder,stoichiometry N
1,B10,6

# Biological target: T1, Sa Hfq
# Experiment: fluorescence polarization
# Remark: another data set of the same source
row,Binder,binding result
1,B11,binds
2,B12,binds
